Assay results reported in patent US9969998B2, “Compositions of adenosine deaminase-2 (ADA2), variants thereof and methods of using same” (Halozyme, Inc., priority 2014, dated 2018).
Changes are numbered by the printed parent chain. In names and notes the source's numbering stands. Several values for one entry are separate records, joined by “and”; a condition that tells them apart may be missing. Equal entries are not always repeated.

Columns and labels:
[1] = system: NK/T cells; experiment: Adenosine-mediated inhibition of NK/T cell proliferation (Cell Titer Glow); format: cell-based, human; settings: 5 days
Method: A mixture of NK and T cells (NK/T) were prepared from healthy donor's peripheral blood mononuclear cells (PBMC). Briefly, 10×10^7 HumanPBMCs were cultured for 6-7 days in Stem cell growth medium (SCGM; Order No. 20802-0500, CellGenix, Freiburg, Germany) with 5% human serum from donors with blood type AB (human AB serum; Cat. No. 35-060-C1, Mediatech, Mannassas, Va.) in the presence of 20 ng/mL anti-CD3 eBioscience, San Diego, Calif.; Cat. No. 16-0039) and 500 IU/mL recombinant human interleukin 2 (rhIL-2; Cat. No. 200-02, PeproTech, Rocky Hill, N.J.). The cells were then cultured for an additional 2-3 weeks in SCGM in the presence of 500 IU/mL rhIL-2. NK/T cells cultured for 2-4 weeks were used in experiments.
To test the adenosine-mediated inhibition of NK/T cells proliferation, NK/T cells (10,000 cells/well) were plated in a 96 well white plate with clear bottoms in 200 μL volume. The cells were treated with 20 μL adenosine (SKU No. A925, Sigma Aldrich) at concentrations resulting from a 3-fold dilution series starting at 1 mM, i.e. 1 mM, 300 μM, 100 μM, 30 μM, 10 μM, 3 μM, 1 μM, 0.3 μM and 0.1 μM. The NK/T cells were allowed to grow for 5 days in a humidified tissue culture incubator at 37° C. with 5% CO2. After 5 days of treatment, the cells were centrifuged in a 96 well plate at […] for 5 min. 100 μL of medium was removed from each well of cells, followed by addition of 100 μL of Cell Titer Glow (CTG) reagent (Cat. No. G7570, Promega, Madison, Wis.) and incubated at room temperature for 15 min before measuring luminescence on the SpectraMax M3 plate reader according to the manufacturer's instructions. The mean cell survival (%) was determined by comparison of the measured luminescence to control cells not treated with adenosine

[2] = mouse, in vivo, iv, 7.5 mg/kg
From the text: Fifty four (54) male BALB/c mice were divided into six (6) dosing groups, and were further divided into three (3) groups each for sampling of blood at different time points. Thus, the mice were randomized into eighteen (18) groups total. Mice were weighed prior to the start of the study, and randomized into the 18 groups based upon their body weights. In each sampling group, three groups of (3) mice were used for dosing each test article to prevent oversampling of the blood from the animals. For measurement of baseline ADA2 levels, a blood sample was obtained from 12 randomly chosen mice and plasma was prepared using the anti-coagulant potassium (K3) ethylene diamine tetraacetic acid (K3-EDTA). All blood was collected by submandibular venipuncture.
Each mouse was injected by intravenous tail-vein injection with a 7.5 mg/kg dose of one of six ADA2 test article as set forth in Table 24, i.e. rHuADA2-K374D (K371D by mature numbering), PEG-rHuADA2-K374D (PEG-K371D by mature numbering), rHuADA2-R23E (R20E by mature numbering), PEG-rHuADA2-R23E (PEG-R20E by mature numbering), or WT ADA2 and PEG-WT ADA2.
Blood was collected at designated sampling time points from appropriate groups of mice as indicated below in Table 24 and kept on ice until plasma preparation. Plasma was prepared by centrifuging the blood (500×g for 5 min at 4° C.), transferring the plasma to a fresh tube and immediately freezing at −80° C. until the adenosine deaminase activity assay. Adenosine deaminase activity was determined as described in Example 4. The half-life, or time taken for the activity of ADA2 proteins to be reduced by half, was calculated. Also, total exposure was measured by calculating the Area Under the Concentration-time Curve (AUC).

[3] = Adenosine deaminase (ADA) enzymatic activity assay kit; format: biochemical
[4] = Thermal stability by differential scanning fluorimetry (DSF); format: physicochemical; settings: 0.1-1 mg/mL protein
Method: The stability of the rHuADA2 WT and variants was measured by differential scanning fluorimetry (DSF) at increasing temperatures. DSF measures conformational stability, which correlates with thermal stability. The melting temperature (Tm) in DSF is defined as the midpoint of the protein unfolding transition.
Non-PEGylated WT rHuADA2, non-PEGylated rHuADA2 variants, and PEGylated forms of WT rHuADA2 and rHuADA2 variants were prepared at concentrations of 0.1-1 mg/mL and mixed with the ROX™ protein thermal shift dye (Applied Biosystems, Carlsbad, Calif.; Cat. No. 4461146) to a final dye concentration that corresponds to a 125-fold dilution of the stock ROX™ solution. Protein samples were then loaded into 96-well plate at a volume of 20 μL/well in triplicate. A ViiA7 RT-PCR System (Applied Biosystems, Carlsbad, Calif.) was used to measure the shift in fluorescence as the temperature of the samples were increased. The reactions were subjected to the following steps: incubation at 25° C. for 2 min; ramping of temperature from 25 to 99° C. at a rate of 0.05° C. per second; followed by a 99° C. incubation for 2 min. The wavelengths used for emission and excitation were 623 nanometers (nm) and 580 nm, respectively.

[5] = Heparin binding capture ELISA (biotin-heparin on streptavidin plate); settings: PEGylated and non-PEGylated forms (Table 22)
Method: Heparin binding of PEGylated rHuADA2 or variants was assessed by capture ELISA. Binding of rHuADA1 was assessed as a negative control. 100 μL of 0.2 mg/mL biotin-heparin (Sigma-Aldrich, St. Louis, Mo.; Cat No. B9806-10MG) was added to a streptavidin coated 96-well plate (Thermo Fisher Scientific, Rockford, Ill.; Cat. No. 15520), and incubated at room temperature for 1 hour. The plate was washed 6 times with PBS. Then, 150 μL of […] rHuADA2 was added to the heparin coated plate, titrated in 3× serial dilutions, and incubated at room temperature for 2 hours. The plate was then washed 6 times with PBS. A 1000× dilution of goat HRP-anti-FLAG pAb (Abcam, Cambridge, UK; Cat. No. Ab1238) was added to the ELISA plate and incubated at room temperature for 1 hour. The ELISA plate was then washed 6 times with phosphate buffered saline with Tween (PBST) and developed with the 3,3′,5,5′-Tetramethylbenzidine (TMB) substrate solution (Pierce, Thermo Fisher Scientific, Rockford, Ill.) according the manufacturer's instructions and reading the optical density at 450 nm (OD450) on a plate reader.

[6] = system: adenosine in tumor extracellular matrix; experiment: Adenosine in MH194+PSC4 tumor extracellular matrix (microdialysis, LC/MS); format: in vivo, mice; settings: for Adenosine concentration in ECM, Mean: n = 8; for Adenosine concentration in ECM, individual tumors: single animal values; for adenosine concentration in tumor ECM: 0.03 mg/kg
Method: To assess the effects of PEGADA2 on adenosine in tumor extracellular matrix, mice bearing peritibial MH194+PSC4 tumors received vehicle, the polypeptide whose sequence is set forth in SEQ ID NO:20, which contains the amino acid replacement K374D (Zavialov numbering; K371D mature numbering), at 0.03 mg/kg, or the polypeptide whose sequence is set forth in SEQ ID NO: 273, which contains the amino acid replacements R222Q/S265N (Zavialov numbering; R219Q/S262 mature numbering), at 0.03 mg/kg, 24 or 48 hours prior to microdialysis. Each of the polypeptides were PEGylated as described above in Examples 8 and 22). The mice were anesthetized using isofluorane, and a heating pad was used to maintain body temperature. A small incision was made on the tumor. A microdialysis probe with 55,000 Da molecular weight cut-off (CMA, Stockholm, Sweden) was inserted into the tumor, via a guided cannula. The length of the microdialysis probe used in this study was 10 mm. Once the probe was in position, the cannula was withdrawn leaving the probe completely embedded in the tumor tissue. Dulbecco's phosphate buffered saline (DPBS; Thermo Fisher Scientific) with ADA inhibitors (Pentostatin and 5-iodotubercindin) was perfused through the probe at a flow rate of 1 μl/min for 30 minutes. Then the samples were collected at a flow rate of 0.5 μl/min for 60 minutes. Microdialysis perfusates were analyzed by Liquid chromatography-mass spectrometry (LC/MS) at MicroConstants (9050 Camino Santa Fe, San Diego, Calif. 92121).

[7] = Kinetic assessment of adenosine deaminase activity (ammonia assay, Michaelis-Menten); format: biochemical; settings: for Km / Vmax / kcat: [E] = 8.5 nM; for kcat: kcat=Vmax/0.0085/60
Procedure, shortened: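 Coupled ammonia assay: rHuADA2 WT or variants (1 μg/mL, 17 nM in 2× mix) with adenosine 20 μM–20 mM, α-ketoglutarate, NADPH and GDH, at pH 7.6 or pH 6.5 (PIPES), room temperature. Michaelis-Menten fit gave Km, Vmax, kcat, kcat/Km.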

Molecule: Nc1ncnc2c1ncn2[C@@H]1O[C@H](CO)[C@@H](O)[C@H]1O [Adenosine, adenosine]
- IC50 ([1]; Homo sapiens, NKT, 120 h): 16.2 µM
- Mean Cell survival (%) ([1]; adenosine 0.1 μM): 106.67%
- Mean Cell survival (%) ([1]; adenosine 0.3 μM): 101.19%
- Mean Cell survival (%) ([1]; adenosine 1 μM): 121.11%
- Mean Cell survival (%) ([1]; adenosine 3 μM): 110.07%
- Mean Cell survival (%) ([1]; adenosine 10 μM): 70.33%
- Mean Cell survival (%) ([1]; adenosine 30 μM): 36.84%
- Mean Cell survival (%) ([1]; adenosine 100 μM): 26.01%
- Mean Cell survival (%) ([1]; adenosine 300 μM): 13.65%
- Mean Cell survival (%) ([1]; adenosine 1000 μM): 15.82%

B1: PEG-WT ADA2: WT rHuADA2 PEGylated with linear PEG-20K (conjugate, UniProt Q9NZK5 30-511, looked up)
Adenosine deaminase 2: IDETRAHLLLKEKMMRLGGRLVLNTKEELANERLMTLKIAEMKEAMRTLIFPPSMHFFQAKHLIERSQVFNILRMMPKGAALHLHDIGIVTMDWLVRNVTYRPHCHICFTPRGIMQFRFAHPTPRPSEKCSKWILLEDYRKRVQNVTEFDDSLLRNFTLVTQHPEVIYTNQNVVWSKFETIFFTISGLIHYAPVFRDYVFRSMQEFYEDNVLYMEIRARLLPVYELSGEHHDEEWSVKTYQEVAQKFVETHPEFIGIKIIYSDHRSKDVAVIAESIRMAMGLRIKFPTVVAGFDLVGHEDTGHSLHDYKEALMIPAKDGVKLPYFFHAGETDWQGTSIDRNILDALMLNTTRIGHGFALSKHPAVRTYSWKKDIPIEVCPISNQVLKLVSDLRNHPVATLMATGHPMVISSDDPAMFGAKGLSYDFYEVFMGIGGMKADLRTLKQLAMNSIKYSTLLESEKNTFMEIWKKRWDKFIADVATK
modifications: linear PEG-20K
notes: WT rHuADA2 PEGylated with linear PEG-20K
- AUC (mU * h)/mL [2]: 1,444,000 (mU * h)/mL
- Half life slow (t1/2) [2]: 13.6 h
- Percent increase in AUC compared to WT ADA2 [2]: 4291%
- Percent increase in t1/2 compared to WT ADA2 [2]: 1078%
- adenosine deaminase activity mU/mL ([3]; PEGylated and non-PEGylated forms (Table 23)): 124.2 mU/mL
- % of WT adenosine deaminase activity ([3]; Table 23): 102.2%
- Tm, melting temperature by DSF [4]: 68.81 °C
- Average OD450, heparin binding capture ELISA [5]: 0.75

B2: R222Q/S265N: ADA2 combination variant SEQ ID NO:273 (protein)
chain: B1 Adenosine deaminase 2 with R219Q, S262N
modifications: human ADA2 R219Q/S262N, mature numbering
- Adenosine concentration in ECM, Mean ([6]; 24 hours after 0.03 mg/kg): 6.88 µM
- Adenosine concentration in ECM, individual tumors ([6]; 24 hours after 0.03 mg/kg): 0.08 µM and 20.54 µM and 1.08 µM and 0.62 µM and 4.94 µM and 21.48 µM and 0.48 µM and 5.80 µM
- adenosine concentration in tumor ECM ([6]; 24 hours post treatment): 6.9 µM
- Adenosine concentration in ECM, Mean ([6]; 48 hours after 0.03 mg/kg): 9.77 µM
- Adenosine concentration in ECM, individual tumors ([6]; 48 hours after 0.03 mg/kg): 13.06 µM and 1.96 µM and 20.36 µM and 20.62 µM and 0.35 µM and 4.15 µM and 14.26 µM and 3.43 µM
- adenosine concentration in tumor ECM ([6]; 48 hours post treatment): 9.8 µM
- fold higher catalytic efficiency (kcat/Km) compared to the WT ADA2 ([7]; pH 6.5): 8.2 fold
- fold lower Km compared to the WT ADA2 ([7]; pH 6.5): 5.0 fold
- Km ([7]; pH 6.5): 800 µM
- Vmax ([7]; pH 6.5): 56.75 µM/min
- kcat ([7]; pH 6.5): 111.27 s⁻¹
- fold higher catalytic efficiency (kcat/Km) compared to the WT ADA2 ([7]; pH 7.6): 15 fold
- fold lower Km compared to the WT ADA2 ([7]; pH 7.6): 4.7 fold
- Km ([7]; pH 7.6): 1100 µM
- Vmax ([7]; pH 7.6): 87.79 µM/min
- kcat ([7]; pH 7.6): 172.14 s⁻¹
